{"source": "the nanobody polyreactivity screen of Harvey et al. (2022)"}
{"experiment": "yeast display, Sf9 membrane polyspecificity reagent, FACS + sequencing; frameworks hold sequencing errors", "in_short": "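Using colony PCR, genes from sorted yeast display clones were amplified, then sequenced on MiSeq at 2 × 250 and filtered by CDR length. The clones had been stained with 10% biotinylated, detergent-solubilized Sf9 membrane reagent for 1 hour at 4 °C and sorted by FACS into low and high (top ~1%) gates on anti-HA and streptavidin fluorescence. Polyreactivity labels come from the gate of origin.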"}
{"sequence": "QVQLVESGGGLVQAGGSLRLSCAASGFTLKYYAMGWYRQAPGKERELVAAISSGDSTNYADSVKGRFTISRDNAKNTVYLQMNSLKPEDTAVYYCNTRYPSSSYYYWGQGTQVTVSS", "polyreactivity (PSR sort gate)": "low polyreactivity"}
{"sequence": "QVQLVESGGGLVQAGGSLRLSCAASGFTLKYYAMGWYRQAPGKERELVAAITSSGVSTYYADSVKGRFTISRDNAKNTVYLQMNSLKPEDTAVYYCAALYWYSRSSWDYDYWGQGTQVTVSS", "polyreactivity (PSR sort gate)": "high polyreactivity"}
{"sequence": "QVQLVESGGGLVQAGGSLRLSCAASGFTLLKYDMGWYRQAPGKERELVAAITRRGGRTSYADSVKGRFTISRDNAKNTVYLQMNSLKPEDTAVYYCNADGDTGRFDYWGQGTQVSVSS", "polyreactivity (PSR sort gate)": "high polyreactivity"}
{"sequence": "QVQLVESGGGLVQAGGSLRLSCAASGFTLLPNAMGWYRQAPGKERELVAAITASGGRTYYADSVKGRFTISRDNAKNTVYLQMNSLKPEDSAVYYCNAGVYYYYHYTRMDYWGQGTQVTVSS", "polyreactivity (PSR sort gate)": "low polyreactivity"}
{"sequence": "QVQLVESGGGLVQAGGSLRLSCAASGFTLNGYAMGWYRQAPGKERELVAAISSSGGRTYYADSVKGRFTISRDNAKNTVYLQMNSLKPEDTAVYYCAAVVYYEDGYWGQGTQVTVSS", "polyreactivity (PSR sort gate)": "low polyreactivity"}
{"sequence": "QVQLVESGGGLVQAGGSLRLSCAASGFTLPANGMGWYRQAPGKERELVAAISFIAGSTYYADSVKGRFTISRDNAKNTVYLQMNSLKPEDTAVYYCATQFPPSTIYYYWGQGTQVTVSS", "polyreactivity (PSR sort gate)": "low polyreactivity"}
{"sequence": "QVQLVESGGGLVQAGGSLRLSCAASGFTLQSNAMGWYRQAPGKERELVAAISFRGGSTYYADSVKGRFTISRDNAKNTVYLQMNSLKPEDTAVYYCAAVQVHLREYDYWGQGSQVTVSS", "polyreactivity (PSR sort gate)": "low polyreactivity"}
{"sequence": "QVQLVESGGGLVQAGGSLRLSCAASGFTLRANAMGWYRQAPGKERELVAAITRTGGRTYYADSVKGRFTISRDNAKNTVYLQMNSLKPEDTAVYYCAADHGPSKWYDYWGQGTEVTVSS", "polyreactivity (PSR sort gate)": "low polyreactivity"}
{"sequence": "QVQLVESGGGLVQAGGSLRLSCAASGFTLRGNAMGWYRPAPGKERELVAAISTGGSTYYADSVKGRFTISRDNAKNTVYLQMNSLKPEDTAVYYCARRGWFHYRYYYWGQGTQATVSS", "polyreactivity (PSR sort gate)": "high polyreactivity"}
{"sequence": "QVQLVESGGGLVQAGGSLRLSCAASGFTLRKYAMGWYRQAPGKEREFVATSSSRAASTYYADSVKGRFTISRDNAQNPVYLQMNSLNQEDTAVYYCNKLSPYRGFYWGQGTQVTVSS", "polyreactivity (PSR sort gate)": "high polyreactivity"}
{"sequence": "QVQLVESGGGLVQAGGSLRLSCAASGFTLSAYAMGWYRQAPGKERELVAGISYTGGRTYYADSVKGRFTISRDNAKNTVYLQMNSLKPEDTAVYYCNKAWSGYYKYGYWGQGTQVNVSS", "polyreactivity (PSR sort gate)": "low polyreactivity"}
{"sequence": "QVQLVESGGGLVQAGGSLRLSCAASGFTLSYYAMGWYRQAPRKERELVASISAIGGITYYADSVKGRFTISRDNAKNTVYLQMNSLKPEDSAVYYCIAGKRFTPYDYWGQGTQVTVSS", "polyreactivity (PSR sort gate)": "high polyreactivity"}
{"sequence": "QVQLVESGGGLVQAGGSLRLSCAASGFTLTPYAMGWYRQAPGKERELVAAITYTGGSTYYADSVKGRFTISRDNAKNTVYLQMNSLKPEDTAVYYCAAEFLSVPYDYCYWGQGTQVTVSS", "polyreactivity (PSR sort gate)": "high polyreactivity"}
{"sequence": "QVQLVESGGGLVQAGGSLRLSCAASGFTLVKYVMGWYRQAPGKERELVAAINRSGTSTYYADSVKGRFTISRDNAKYSVYLQMNSLKPEDTAVYYCNADWYRKRNYWGQGTQVTVSS", "polyreactivity (PSR sort gate)": "high polyreactivity"}
{"sequence": "QVQLVESGGGLVQAGGSLRLSCAASGFTLYAYVMGWYRQAPGKERELVAAISRSGGSTYYADSVKGRFTISRDNAKNTVYLQMNSLKPEDTAVYYCAAQSKYYQYYSWGQGTQVTVSS", "polyreactivity (PSR sort gate)": "high polyreactivity"}
{"sequence": "QVQLVESGGGLVQAGGSLRLSCAASGFTLYRYAMGWYRQAPGKERELVAAISNSGGSTYYADSVKARFTISRDNAKNTVYLQMNSLKPEDTAVYYCAADPGYNVYGYYYWGQGTQVTVSS", "polyreactivity (PSR sort gate)": "high polyreactivity"}
{"sequence": "QVQLVESGGGLVQAGGSLRLSCAASGFTLYWNAMGWYRPAPGTERELVAGITNGGDTYYADSVKGRFTISRDNAKNTVYLQMNSLKPEDTAVYYCNVDPVYYRFHSSLSVIPGYDYWGQGTQVTVSS", "polyreactivity (PSR sort gate)": "low polyreactivity"}
{"sequence": "QVQLVESGGGLVQAGGSLRLSCAASGFTLYYYTMGWYRQAPGKERELVASITGGGTTNYADSVKGRFTISRDNAKNTVYLQMNSLKPEDTAVYYCAKGYGASNDPGYVRKRYGYWGQGTQVTVSS", "polyreactivity (PSR sort gate)": "low polyreactivity"}
{"sequence": "QVQLVESGGGLVQAGGSLRLSCAASGFTNSMGWSTQAHGKERELVAAISYSGDSTNYADSVKGRFTISRDNAKNTVYLQMNSLKPEDTAVYYCNASSPYDYDWGQGTQVTVSS", "polyreactivity (PSR sort gate)": "low polyreactivity"}
{"sequence": "QVQLVESGGGLVQAGGSLRLSCAASGFTSKGYAMGWYRQAPGKERELVATIRSRGGGTYYADSVKGRFTISRDNAKNTVYLQMNSLKPEDTAVYYCAAERKNKYDYWGQGTQVTVSS", "polyreactivity (PSR sort gate)": "high polyreactivity"}
{"sequence": "QVQLVESGGGLVQAGGSLRLSCAASGFTSRKNAMGWYRQAPGKERELVAAITQSSGRTYYADSVKGRFTISRDNAKNTVYLQMNSLKPEDTAVYYCAARRGGEDDYWGQGTQVTVSS", "polyreactivity (PSR sort gate)": "low polyreactivity"}
{"sequence": "QVQLVESGGGLVQAGGSLRLSCAASGFTSRYVMGWYRQAPGKERELVASISRSGGSTYYADSVKGRFTISRDNAKNTVYLQMNSLKPEDTAVYYCAALGLSYSSRYYHWQNEFDYWGQGSQVTVSS", "polyreactivity (PSR sort gate)": "high polyreactivity"}
{"sequence": "QVQLVESGGGLVQAGGSLRLSCAASGFTSSRNAMGWYRQAPGKERELVATISSGGDTYYADSVKGRFPISRDNAKTTVYLQMNSLKPEDTAVYYCNKDPLYAWGYDYWGQGTQVTVSS", "polyreactivity (PSR sort gate)": "low polyreactivity"}
{"sequence": "QVQLVESGGGLVQAGGSLRLSCAASGFTSTLNDMGWYRQAPGKERELVAAISNGGSTYYADSVKGRFTISRDNAKNTVYLQMNSLKPEDTAVYYCAVTATAPQEGDYWGQGTQVTVSS", "polyreactivity (PSR sort gate)": "low polyreactivity"}
{"sequence": "QVQLVESGGGLVQAGGSLRLSCAASGFTVSWYVMGWYRQAPGKERELVAAITWSGGNTYADSVKGRFTISRDNAKNTVYLQMNSLKPEDTAVYYCAADPAHGTKWYVYPSHDDYWGQGTQVTVSS", "polyreactivity (PSR sort gate)": "low polyreactivity"}
{"sequence": "QVQLVESGGGLVQAGGSLRLSCAASGFTYRNYAMGWYRQAPGKERELVAAISRGGGSTYYADSVKGRFTISRDNAKNTVYLQMNSLKPEDTAVYYCAVAYPFYVKTLFSPEADYNYWGQGTQVTVSS", "polyreactivity (PSR sort gate)": "high polyreactivity"}
{"sequence": "QVQLVESGGGLVQAGGSLRLSCAASGFTYRPNAMGWYRQAPGKERELVASIRYSGGSTYYADSVKGRFTISRDNAKNTVYLQMNSLKPEDTAVYYCAAVLYSWMRLGSTYTYDYWGQGTQVTVSS", "polyreactivity (PSR sort gate)": "low polyreactivity"}
{"sequence": "QVQLVESGGGLVQAGGSLRLSCAASGFTYSTNAMGWYRQAPGTERELVAAISGSGGSTYYADSVKGRFTISRDNAKNTVYLQMNSLKPEDTAVYYCAARCPYYSWGRYEYYYWGQGTQVTLSS", "polyreactivity (PSR sort gate)": "high polyreactivity"}
{"sequence": "QVQLVESGGGLVQAGGSLRLSCAASGFYAMGWYIQAPGKERELVAAIRYRGGSTYYADSVKGRFTFSRDNAKNTVDLQMNSLKPEDTAVYYCAASTGPDRQFDSWGQGTQVTVSS", "polyreactivity (PSR sort gate)": "low polyreactivity"}
{"sequence": "QVQLVESGGGLVQAGGSLRLSCAASGGIFADYAMGWYRQAPGKERELVADISARGGSTYNADSVKGRFTISRDNAKNTVYLQMNSLKPEDTAVYYCATDGPGYPPTLRYDYWGQGTQVTVSS", "polyreactivity (PSR sort gate)": "low polyreactivity"}
{"sequence": "QVQLVESGGGLVQAGGSLRLSCAASGGIFAYMGWYRQAPGKERELVASITSSGGSTYYADSVKGRFTISRDNAKNTVYLQMNSLKPEDTAVYYCAADPDFYKSVQYDYWGQGTQVTVSS", "polyreactivity (PSR sort gate)": "low polyreactivity"}
{"sequence": "QVQLVESGGGLVQAGGSLRLSCAASGGIFAYNAMGWYRQAPGKERELVATISYSGGSTYYADSVKGRFTISRDNAKNTVYLQMNSLKPEDTAVYYCATRLYGWRGRYNYWGQGTQVTVSS", "polyreactivity (PSR sort gate)": "high polyreactivity"}
{"sequence": "QVQLVESGGGLVQAGGSLRLSCAASGGIFDGNAMGWYRQAPGKERELVAAISSGGITKYADSEKGRFTISRDNAKNTVYLQMNSLKPEDTAVYYCAASWYRYRFIRYDYWGQGTQVTVSS", "polyreactivity (PSR sort gate)": "high polyreactivity"}
{"sequence": "QVQLVESGGGLVQAGGSLRLSCAASGGIFDINAMGWYRQAPGKERELVAAISWGGGSTYYADSVKGRFTISRDNAKNTVYLQMNSLKPEDTAVYYCAAESVSIQPTPDEDYWGQGTQVTVSS", "polyreactivity (PSR sort gate)": "high polyreactivity"}
{"sequence": "QVQLVESGGGLVQAGGSLRLSCAASGGIFDRYAMGWYRQAPGKERELVAAITGSGGRTYYADSVKGRFTISRDKAKNSVYLQMTSLKPVDPAVYYCARAFGQRRYDYWGHGTQVTVSS", "polyreactivity (PSR sort gate)": "high polyreactivity"}
{"sequence": "QVQLVESGGGLVQAGGSLRLSCAASGGIFDRYAMGWYRQAPGKERELVAGITWSGGRTYYADSVKGRFTISRDNAKNTVYLQMNSLKPEDTAVYYCAASLYTWTYQPVYYRDGYWGQGTQVTVSS", "polyreactivity (PSR sort gate)": "low polyreactivity"}
{"sequence": "QVQLVESGGGLVQAGGSLRLSCAASGGIFEANVMGWYRQAPGKERELVAAITSGGSTNYADSVKGRFTISRDNAKNTVYLQMNSLKPEDTAVYYCAADRPDGWVDYWGQGTQVTVSS", "polyreactivity (PSR sort gate)": "low polyreactivity"}
{"sequence": "QVQLVESGGGLVQAGGSLRLSCAASGGIFFSYAMGWYRQAPGKERELVAAIRTNGGTTYYADSVKGRFTISRDNAKNTVYLQMNSLKPEDTAVYYCAALPGGYYDRGEYDYWGQGTQVSVSS", "polyreactivity (PSR sort gate)": "low polyreactivity"}
{"sequence": "QVQLVESGGGLVQAGGSLRLSCAASGGIFGLYTMGWYRQAPGKERELVAAISKTGGSTYYADSVKGRFTISRDNAKNTVYLQMNSLKPEDTAVYYCAKAGRYANLPYGYWGQGTQVTVSS", "polyreactivity (PSR sort gate)": "high polyreactivity"}
{"sequence": "QVQLVESGGGLVQAGGSLRLSCAASGGIFGRNAMGWYRQAPGKEMELVAAISSSGGTTYYADSVKGRFTISRDYAKNTVYLQMNSMKPEDTAVYYCNAAYYWRSFHDDYFGQGTQVTVSS", "polyreactivity (PSR sort gate)": "high polyreactivity"}
{"sequence": "QVQLVESGGGLVQAGGSLRLSCAASGGIFGSYAMGWYRQAPGKERELVAAISGGSTYYADSVKGRFTISRDNAKNTVYLQMTSLKPEDTAVYYCAAGWSVWYQDFDYWGQGTQVTVSS", "polyreactivity (PSR sort gate)": "high polyreactivity"}
{"sequence": "QVQLVESGGGLVQAGGSLRLSCAASGGIFGSYAMGWYRQAPGKERELVAAISWRGGSTYYADSVKGRFTISRDNAKNTVYLQMNSLKPEDTAVYYCAARYRWGYSTSYSYRFDYWGQGTQVTVSS", "polyreactivity (PSR sort gate)": "high polyreactivity"}
{"sequence": "QVQLVESGGGLVQAGGSLRLSCAASGGIFGSYTMGWYRQAPGKERELVAGISDSGGSTYYADSVKGRFTISRDNAKNIVYLQMNSLKPEDTAVYYCAAVEAYGQEYDYWGQGTQVTVSS", "polyreactivity (PSR sort gate)": "low polyreactivity"}
